Data as given in the supplement of paper PMC6757056.
± gives the standard deviation of the averaged measurements.

B1: library; a variant is named by its letters at N, in order (parent)
chain: GCUGUCACCGAGAAACUGUGAAGUAUAUCUUAAACCUGGGCACUUAAAAGAUAUAUGGAGUUAGUAGUGCAACCUGCUCGGUCUGAUGAGUCCNNNNNNGGACGAAACAGC

Columns and labels:
[1] = variants of: B1; experiment: FACS-Seq fitted mean relative fluorescence mCherry/BFP without ligand (log10 relative fluorescence); HEK293T; ligand: cyclic di-GMP (c-di-GMP-II aptamer); higher = higher reporter protein expression; details: ligand present: no
Procedure, shortened: (§1)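 Lentivirally transduced HEK293T libraries carried an mCherry reporter with the ribozyme switch and an EF1α-BFP marker. Transduced cells were enriched, then incubated with or without ligand for 48 h and sorted into 6 bins by mCherry/BFP. Genomic DNA from each bin was PCR-amplified, barcoded and sequenced on MiSeq. Fluorescence was the fitted normal mean of log10(mCherry/BFP) bin counts, scaled to five spiked-in control ribozymes.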

[2] = variants of: B1; experiment: normalized RNA/DNA level without ligand (relative to sTRSVctl = 100) (log10 (% of sTRSVctl)); HEK293T; ligand: cyclic di-GMP (c-di-GMP-II aptamer); higher = less ribozyme self-cleavage, higher mRNA level; details: reporter: mCherry (pCS4076), ligand present: no
Procedure, shortened: (§2)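 Library plasmids carrying ribozyme switches linked to mCherry, or to eGFP in some ligand experiments, were transfected into HEK293T at 4 µg per 6-well well, with any ligand added 1 h earlier. Seventy-two hours on, total RNA was extracted with EDTA and reverse-transcribed, amplified, barcoded and sequenced. RNA level was RNA over DNA reads normalized to a spiked-in non-cleaving sequence or to the top sequences, then scaled and log-transformed. The top set was 25 sequences, the transform was ×100 and log10, and sequences needed ≥100 DNA reads.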

[3] = variants of: B1; experiment: FACS-Seq fitted mean relative fluorescence mCherry/BFP with ligand (log10 relative fluorescence); HEK293T; ligand: cyclic di-GMP (c-di-GMP-II aptamer); ligand concentration (+) FACS-Seq: 1 mM; higher = higher reporter protein expression; details: ligand present: yes
Procedure, shortened: as §1

[4] = variants of: B1; experiment: normalized RNA/DNA level with ligand (relative to sTRSVctl = 100) (log10 (% of sTRSVctl)); HEK293T; ligand: cyclic di-GMP (c-di-GMP-II aptamer); ligand concentration (+) RNA-Seq: 1 mM; higher = less ribozyme self-cleavage, higher mRNA level; details: reporter: mCherry (pCS4076), ligand present: yes
Procedure, shortened: as §2

Variant	FACS-Seq fitted mean (log10) [1]	normalized RNA/DNA level without ligand (log10) [2]	FACS-Seq fitted mean (log10) [3]	normalized RNA/DNA level with ligand (log10) [4]
CUCUUG	0.116 ± 0.092	1.73 ± 0.029	0.381 ± 0.043	1.86 ± 0.096
AAAAGA	-0.494 ± 0.013	1.36 ± 0.073	-0.116 ± 0.009	1.56 ± 0.14
CACACU	-0.437 ± 0.0083	1.52 ± 0.12	-0.0902 ± 0.05	1.7 ± 0.067
UCAAUA	-0.525 ± 0.048	1.4 ± 0.085	-0.157 ± 0.078	1.63 ± 0.089
GUGGCC	0.168 ± 0.017	1.86 ± 0.033	0.366 ± 0.0082	1.97 ± 0.047
UAUUAA	-0.387 ± 0.054	1.7 ± 0.039	-0.126 ± 0.13	1.87 ± 0.12
GAGCUG	0.303 ± 0.085	1.82 ± 0.078	0.439 ± 0.013	1.89 ± 0.1
AAUGUU	-0.4781 ± 0.0039	1.66 ± 0.034	-0.144 ± 0.16	1.82 ± 0.076
CACUAA	-0.523 ± 0.058	1.3 ± 0.16	-0.243 ± 0.011	1.48 ± 0.13
GUUCGU	-0.35 ± 0.027	1.66 ± 0.01	0.0521 ± 0.011	1.8 ± 0.074
GAAUUG	-0.422 ± 0.012	1.57 ± 0.096	-0.0224 ± 0.071	1.74 ± 0.11
CGGGGA	-0.489 ± 0.015	1.54 ± 0.11	-0.28 ± 0.044	1.64 ± 0.093
UUGGCU	-0.121 ± 0.069	1.789 ± 0.009	0.192 ± 0.12	1.88 ± 0.15
UGUAAA	0.0683 ± 0.13	1.72 ± 0.019	0.3702 ± 0.0013	1.85 ± 0.086
UACUAU	-0.131 ± 0.0047	1.67 ± 0.051	0.0664 ± 0.13	1.83 ± 0.15
CCCGUC	-0.648 ± 0.28	1.73 ± 0.061	-0.317 ± 0.1	1.87 ± 0.16
CCCGUA	-0.351 ± 0.12	1.55 ± 0.067	-0.0502 ± 0.012	1.72 ± 0.055
UAUGGU	-0.169 ± 0.095	1.569 ± 0.014	0.0872 ± 0.053	1.76 ± 0.11

Variant	FACS-Seq fitted mean (log10) [1]	normalized RNA/DNA level without ligand (log10) [2]	FACS-Seq fitted mean (log10) [3]	normalized RNA/DNA level with ligand (log10) [4]
AGGGAG	-0.66 ± 0.02	1.6 ± 0.05	-0.378 ± 0.013	1.73 ± 0.084
GCAGGU	-0.184 ± 0.0055	1.66 ± 0.054	0.0315 ± 0.013	1.79 ± 0.15
GAGUUA	-0.199 ± 0.084	1.74 ± 0.033	-0.129 ± 0.019	1.82 ± 0.14
CACUUG	-0.104 ± 0.083	1.74 ± 0.026	0.131 ± 0.0033	1.87 ± 0.12
GCGUAG	-0.637 ± 0.047	1.67 ± 0.074	-0.348 ± 0.095	1.8 ± 0.085
AAACAG	-0.103 ± 0.1	1.55 ± 0.053	0.169 ± 0.015	1.73 ± 0.095
CGGAAU	-0.644 ± 0.016	1.34 ± 0.11	-0.366 ± 0.027	1.44 ± 0.13
ACGGAU	-0.662 ± 0.045	1.29 ± 0.16	-0.374 ± 0.0087	1.4 ± 0.15
CGCUUU	-0.255 ± 0.035	1.46 ± 0.071	0.0291 ± 0.018	1.69 ± 0.073
CUACAA	-0.602 ± 0.069	1.48 ± 0.11	-0.356 ± 0.025	1.68 ± 0.067
UCCAGC	-0.739 ± 0.051	1.66 ± 0.059	-0.609 ± 0.015	1.84 ± 0.15
UACAAC	0.031 ± 0.034	1.68 ± 0.03	0.268 ± 0.013	1.8 ± 0.11
AUGAGU	-0.416 ± 0.026	1.54 ± 0.019	-0.0836 ± 0.048	1.73 ± 0.14
ACCCGC	-0.436 ± 0.15	1.75 ± 0.018	-0.0881 ± 0.013	1.85 ± 0.099
CGUCUA	-0.152 ± 0.067	1.26 ± 0.082	0.127 ± 0.011	1.45 ± 0.1
UAAUGC	-0.174 ± 0.058	1.69 ± 0.032	-0.398 ± 0.12	1.84 ± 0.073
CGAAUA	-0.507 ± 0.0079	1.24 ± 0.091	-0.209 ± 0.083	1.45 ± 0.086
UGAACG	-0.401 ± 0.086	1.74 ± 0.033	-0.0168 ± 0.22	1.84 ± 0.11
